These results are taken from article PMC3876041, “Screening of Peptide Ligands for Pyrroloquinoline Quinone Glucose Dehydrogenase Using Antagonistic Template-Based Biopanning” (International Journal of Molecular Sciences, 2013).

Numbering of substitutions follows the chain as printed. Names and notes keep the numbering of the source. No end group written: not given here. Where only a bound is given, the exact number is not on record here.

Data set [1] has as its target T1, DEE-His (His-tagged V453D-Q454E-K455E GDH-B) (Acinetobacter calcoaceticus, UniProt P13650, K455E/Q454E/V453D).
T1 construct: 6-His (C); made in house
T1 sequence (P13650 25-478 V453D/Q454E/K455E): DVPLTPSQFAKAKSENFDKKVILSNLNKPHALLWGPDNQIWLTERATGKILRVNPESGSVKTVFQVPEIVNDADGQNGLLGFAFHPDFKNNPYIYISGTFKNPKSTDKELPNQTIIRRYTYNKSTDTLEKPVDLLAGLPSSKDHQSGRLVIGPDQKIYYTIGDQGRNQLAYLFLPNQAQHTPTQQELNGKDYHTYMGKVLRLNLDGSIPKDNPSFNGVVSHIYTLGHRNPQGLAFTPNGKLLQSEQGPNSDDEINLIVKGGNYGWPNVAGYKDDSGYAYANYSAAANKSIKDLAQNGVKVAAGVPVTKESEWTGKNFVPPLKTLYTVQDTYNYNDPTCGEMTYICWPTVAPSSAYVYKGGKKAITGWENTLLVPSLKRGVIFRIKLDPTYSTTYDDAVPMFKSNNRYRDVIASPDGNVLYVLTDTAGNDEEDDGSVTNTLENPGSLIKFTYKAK
As to the kind of experiment: SPR (BIAcore X) binding of immobilized synthesized peptides, DEE-His as analyte. The following applies: peptide on CM5 chip (amine coupling), analyte 5 nM to 90 μM in 10 mM MOPS–NaOH pH 7.0, less than 20 RU at any analyte concentration = not binding, read-out: Kd against DEE-His. The source says: (§1) The purity was greater than 95%.
(In general: SPR reads the build-up and loss of mass on a sensor chip optically.)

For another data set, the target named is T2, HI (Y367H-N452I GDH-B) (Acinetobacter calcoaceticus, UniProt P13650, N452I/Y367H).
T2 construct: made in house; host or cells: Escherichia coli PP2418 / pTrc99A
T2 sequence (P13650 25-478 Y367H/N452I): T1 sequence (P13650 25-478 V453D/Q454E/K455E) with Y343H, N428I, D429V, E430Q, E431K
As to the kind of experiment: SPR (BIAcore X) binding of immobilized synthesized peptides, HI as analyte. The following applies: peptide on CM5 chip (amine coupling), analyte 5 nM to 90 μM in 10 mM MOPS–NaOH pH 7.0, less than 20 RU at any analyte concentration = not binding, read-out: Kd against HI.
Source text: as §1

Data set [2] deals with T3, wild-type water-soluble pyrroloquinoline quinone (PQQ) glucose dehydrogenase (GDH-B) (UniProt P13650 25-478).
T3 construct: water-soluble PQQ-dependent glucose dehydrogenase (GDH-B); structural gene in pTrc99A; Produced as apo-form in E. coli; PQQ and Ca2+ are added for activity assays; also called wild-type GDH-B; W.T; source: E. coli PP2418 (pTrc99A), purified as previously described (cation exchange chromatography)
T3 sequence (looked up): T1 sequence (P13650 25-478 V453D/Q454E/K455E) with D429V, E430Q, E431K
As to the kind of experiment: enzyme inhibition assay; residual activity of 0.7 nM GDH-B for 50 mM D-glucose after 1 h incubation with various concentrations of peptide; DCIP/PMS, 10 mM MOPS-NaOH pH 7.0, PQQ, CaCl2; non-competitive dominant mixed inhibition. The following applies: both partners purified.

For data set [3], the target named is T3, wild-type water-soluble …. As to the kind of experiment: SPR; BIAcore X; peptide immobilised on CM5 chip by amine coupling (320-2130 RU); analytes GDH-B, DEE-His or HI, five concentrations (5 nM to 90 uM) in 10 mM MOPS-NaOH pH 7.0, 10 uL/min to plateau; Kd from plateau RU against concentration (Scatchard); less than 20 RU at any concentration judged as not binding. The following applies: both partners purified.

The nature of data set [4]: Kinetic parameters of GDH-B and mutant enzymes. The format is biochemical. On the procedure: (§2) GDH-B activity was measured using 0.06 mM 2,6-dichlorophenolindophenol (DCIP) and 0.6 mM phenazine methosulfate (PMS) following 30 min pre-incubation in 10 mM MOPS–NaOH buffer (pH 7.0) containing 1 μM PQQ and 1 mM CaCl2 at room temperature (25 °C). The enzyme activity was determined by measuring the decrease in absorbance of DCIP at 600 nm. For the inhibition assay, the residual activity of 0.7 nM GDH-B for 50 mM D-glucose was measured following 1 h incubation with various concentrations of each peptide. GDH-B activity in the absence of peptide was defined as 100%.

Data set [5] can be described thus: Substrate specificity of GDH-B mutants. The following applies: galactose 20 mM; activity against glucose = 100%. It counts as biochemical. The protocol:
Figure 3. Substrate specificity of wild-type GDH-B (W.T.), DEE-His, and HI against glucose, lactose, maltose, 3-O-methylglucose (3-O-m glucose), allose, galactose, or 2-deoxyglucose (2DG). Each substrate concentration was 20 mM. The enzymatic activity of each enzyme against glucose was set as 100%.
as §2

The conditions of data set [6]: decrease vs wild-type GDH-B, ref [36]; cited from earlier work. The source says: We, and other research groups, have been engaged in constructing of variety of mutant GDH-Bs in order to develop an ideal enzyme for glucose monitoring. For example, we have reported the Asn452Thr GDH-B mutant, showing approximately 50% lower activity for lactose and maltose than the wild-type GDH-B [36].

A further data set has as its target T4, Y367H-N452I GDH-B (HI) (UniProt P13650 25-478, Y367H | N452I).
T4 construct: also called antagonistic template; source: E. coli PP2418 (pTrc99A), soluble, purified (Resource S cation exchange, Superdex 200 size exclusion chromatography)
T4 sequence: T1 sequence (P13650 25-478 V453D/Q454E/K455E) with Y343H, N428I, D429V, E430Q, E431K
As to the kind of experiment: SPR. As to conditions: both partners purified.

[7] abbreviates: DCIP/PMS assay, 10 mM MOPS–NaOH pH 7.0, 1 μM PQQ, 1 mM CaCl2, 25 °C.

Take SDLSPIQSLSAI [DEE4–6]: the Kd (commonly the concentration at which binding is half-saturated) in data set [1] was > 90 µM.
Regarding LGDSSNSQVSLN [DEE4–5], the Kd (on HI (Y367H-N452I GDH-B); in data set [1]) was > 90 µM each time.
Take NSTHHHHFATIW [DEE4–10]: the Kd (on HI (Y367H-N452I GDH-B); in data set [1]) was > 90 µM in each case.
Regarding ELITNSETTQWF [HI3-2], the Kd in data set [1] is > 90 µM.

B1: DEE4–10 synthesized 12-mer peptide (peptide)
peptide: NSTHHHHFATIW
notes: 12-mer selected from the Ph.D.-12 phage display peptide library; Immobilised on a CM5 chip by amine coupling in the SPR; also called HI4–6; source: synthetic peptide, bought: Sigma Aldrich Japan
In the case of B1, the Ki – broadly, a dissociation constant, usually derived from enzyme kinetics or from competition with a known ligand – in data set [2] was 7.4 µM. In data set [3], this molecule displayed a Kd of 0.7 µM.

B2: DEE-His: GDH-B mutant V453D-Q454E-K455E, 6-His tag fused to the C-terminal, antagonistic template (protein)
chain: T1 sequence (P13650 25-478 V453D/Q454E/K455E)
modifications: left off: His6, C-terminal, kept
notes: GDH-B mutant V453D-Q454E-K455E, 6-His tag fused to the C-terminal, antagonistic template
As for B2, in data set [4] (setting [7]), the Michaelis-Menten constant (Km) (usually the substrate concentration at which the rate is half of its maximum) is 91 mM and the Vmax is recorded as 28 U/mg protein. Besides, in data set [4] (compared to the wild-type enzyme), the “Km compared to wild-type enzyme (in words)” value is “increased Km value”. For the same molecule, the “GDH activity with PQQ (in words)” value in data set [4] (refolded DEE-His, with PQQ) is given as “showed GDH activity with PQQ”. Moreover, in data set [5], the “relative activity toward galactose (in words)” value is listed as “higher relative activity toward galactose”.

B3: GDH-B: water-soluble pyrroloquinoline quinone (PQQ) dependent glucose dehydrogenase, wild type (protein)
chain: T1 sequence (P13650 25-478 V453D/Q454E/K455E) with D429V, E430Q, E431K
Take B3: in data set [4] (setting [7]), the Km worked out at 25 mM and the Vmax is listed as 5200 U/mg protein.

B4: HI: GDH-B mutant Y367H-N452I, antagonistic template (protein)
chain: T1 sequence (P13650 25-478 V453D/Q454E/K455E) with Y343H, N428I, D429V, E430Q, E431K
Consider B4, for which, in data set [4] (setting [7]), the Km worked out at 18 mM and the Vmax was found to be 170 U/mg protein.

B5: GB-His: GDH-B fused with 6-His tag to the C-terminal (protein)
chain: T1 sequence (P13650 25-478 V453D/Q454E/K455E) with D429V, E430Q, E431K
modifications: left off: His6, C-terminal, kept
notes: GDH-B fused with 6-His tag to the C-terminal
For the molecule B5, in data set [4] (pH 7), the Km was 24 mM and the Vmax came out at 3950 U/mg protein.

B6: Asn452Thr GDH-B mutant: previously reported Asn452Thr GDH-B mutant, ref [36] (protein, UniProt P13650 25-478, looked up, variant N452T)
Quinoprotein glucose …: T1 sequence (P13650 25-478 V453D/Q454E/K455E) with N428T, D429V, E430Q, E431K
For B6, in data set [6], the “lower activity for lactose than the wild-type” value is listed as “approximately 50%” and the “lower activity for maltose than the wild-type” value is “approximately 50%”.

B7: DEE4–5 synthesized 12-mer peptide (peptide)
peptide: LGDSSNSQVSLN
notes: 12-mer selected from the Ph.D.-12 phage display peptide library; Immobilised on a CM5 chip by amine coupling in the SPR; also called DEE3-4; source: synthetic peptide, bought: Sigma Aldrich Japan
Regarding B7, in data set [3], binding was characterised by a dissociation constant (Kd) of 13 µM.

B8: DEE4–6 synthesized 12-mer peptide (peptide)
peptide: SDLSPIQSLSAI
notes: 12-mer selected from the Ph.D.-12 phage display peptide library; Immobilised on a CM5 chip by amine coupling in the SPR; also called DEE4–9; source: synthetic peptide, bought: Sigma Aldrich Japan
Take B8: the Kd in the data set with Y367H-N452I GDH-B (HI) was 230 µM; in data set [3] it was 2.5 µM.

B9: HI3-2 synthesized 12-mer peptide (peptide)
peptide: ELITNSETTQWF
notes: 12-mer selected from the Ph.D.-12 phage display peptide library; Immobilised on a CM5 chip by amine coupling in the SPR; source: synthetic peptide, bought: Sigma Aldrich Japan
As to B9, the Kd worked out at 88 µM with Y367H-N452I GDH-B (HI) and 2.5 µM in data set [3].
